# Changes are numbered by the printed parent chain. Names and notes keep the numbering of the source.
# B1: E371A (protein)
# chain: MGTVRAKARSPLRVVPVLLFLLWVALLVPFGLLAAAPVAPSAQGLIALSAVVLVALLKPFADKMVPRFLLLSAASMLVMRYWFWRLFETLPPPALDASFLFALLLFAVETFSISIFFLNGFLSADPTDRPFPRPLQPEELPTVDILVPSYNEPADMLSVTLAAAKNMIYPARLRTVVLCDDGGTDQRCMSPDPELAQKAQERRRELQQLCRELGVVYSTRERNEHAKAGNMSAALERLKGELVVVFDADHVPSRDFLARTVGYFVEDPDLFLVQTPHFFINPDPIQRNLALGDRCPPENEMFYGKIHRGLDRWGGAFFCGSAAVLRRRALDEAGGFAGETITEDAETALEIHSRGWKSLYIDRAMIAGLQPATFASFIQQRGRWATGMMQMLLLKNPLFRRGLGIAQRLCYLNSMSFWFFPLVRMMFLVAPLIYLFFGIEIFVATFEEVLAYMPGYLAVSFLVQNALFARQRWPLVSEVYEVAQAPYLARAIVTTLLRPRSARFAVTAKDETLSENYISPIYRPLLFTFLLCLSGVLATLVRWVAFPGDRSVLLVVGGWAVLNVLLVGFALRAVAEKQQRRAAPRVQMEVPAEAQIPAFGNRSLTATVLDASTSGVRLLVRLPGVGDPHPALEAGGLIQFQPKFPDAPQLERMVRGRIRSARREGGTVMVGVIFEAGQPIAVRETVAYLIFGESAHWRTMREATMRPIGLLHGMARILWMAAASLPKTARDFMDEPARRRRRHEEPKEKQAHLLAFGTDFSTEPDWAGELLDPTAQVSARPNTVAWGSNHHHHHHKLHHHHHH
# B2: R580A (protein)
# chain: B1 chain with A372E, R581A
# B3: BcsA: bacterial cellulose synthase A, catalytic subunit (SEQ ID NO:1) (protein)
# chain: MTVRAKARSPLRVVPVLLFLLWVALLVPFGLLAAAPVAPSAQGLIALSAVVLVALLKPFADKMVPRFLLLSAASMLVMRYWFWRLFETLPPPALDASFLFALLLFAVETFSISIFFLNGFLSADPTDRPFPRPLQPEELPTVDILVPSYNEPADMLSVTLAAAKNMIYPARLRTVVLCDDGGTDQRCMSPDPELAQKAQERRRELQQLCRELGVVYSTRERNEHAKAGNMSAALERLKGELVVVFDADHVPSRDFLARTVGYFVEDPDLFLVQTPHFFINPDPIQRNLALGDRCPPENEMFYGKIHRGLDRWGGAFFCGSAAVLRRRALDEAGGFAGETITEDAETALEIHSRGWKSLYIDRAMIAGLQPETFASFIQQRGRWATGMMQMLLLKNPLFRRGLGIAQRLCYLNSMSFWFFPLVRMMFLVAPLIYLFFGIEIFVATFEEVLAYMPGYLAVSFLVQNALFARQRWPLVSEVYEVAQAPYLARAIVTTLLRPRSARFAVTAKDETLSENYISPIYRPLLFTFLLCLSGVLATLVRWVAFPGDRSVLLVVGGWAVLNVLLVGFALRAVAEKQQRRAAPRVQMEVPAEAQIPAFGNRSLTATVLDASTSGVRLLVRLPGVGDPHPALEAGGLIQFQPKFPDAPQLERMVRGRIRSARREGGTVMVGVIFEAGQPIAVRETVAYLIFGESAHWRTMREATMRPIGLLHGMARILWMAAASLPKTARDFMDEPARRRRRHEEPKEKQAHLLAFGTDFSTEPDWAGELLDPTAQVSARPNTVAWGSN
# modifications: Rhodobacter sphaeroides
# B4: BcsB: bacterial cellulose synthase B, periplasmic membrane-anchored subunit (SEQ ID NO:3) (protein)
# chain: MDMRLLPFLFLGTLASMAAAQDAPMIVIEGLTSEEPQASPDAVAEAVPAAEVAPWIIPLRPLAETAQVGPLFRLQGQQARAAFRLFLPTEAVGGTLTLAQRSSIDILPESSQIIVRMNDQEIGRFTPRQFGALGAVTMPLGEAVRAGDNLVTIEAQHRHRIYCGADAEFDLWTEVDLSQSGVALPAAAIGTEPTSFIAALTAQAESGRPVEIRTPTPPDEATLRTLAQALGRPLPDEALPLALSKPWSAETGPTYARITLLPSDADRVSIRRGGDGAVVLVLEHPPEGSPNASLVADLLGATPTLPPPTLPQIPPGRVVTLADMGVDTILTDNRYFNRDIDFQLPDDWLLLASQKAQIGIDYGFAGGLPEGALLLVKVNGTTVRMLPLDRDAAPVKPRLDIRFPARLLHPGPNRLSFESVIPGNPPDQPCPASAGDLMQVLSSTDLEVPPSPRMQMADMARDLAQVTPASVHPATPDGLARTLPFMAAFREVPDAAPVDLTVAGLHDIATVPLNEEGLTPRLLALTLLPSTVSRLVERPATPAGPPANALAPLGAAPGEGVMPPLVESNWSDRAQTFVQATLQPVIQTVRRMLRPGDGNLAEWLATRKGTAMLLAPEPGKLWVILGPEAEPARVAEALAMAPRSPGGPRGQVAVLGSDGRWSSWSKPGLLPELREPVSLDNVRSVVGNVASARPPLLLGGMLGLAWISAAIAVGFVLRTRRKGLK
# modifications: Rhodobacter sphaeroides
# How the values were obtained:
# [1] = system: cellulose synthesis; assay: Cellulose synthesis activity of inverted membrane vesicles / PLs containing BcsA, BcsB or truncated BcsB; assay type: biochemical, Rhodobacter sphaeroides; details: for catalytic activity (HMW polymer formation): IMVs, 60 min 37° C., with c-di-GMP
# Procedure: FIG. 1A-1C (also referred to as Example 1, FIG. 1): BcsA and BcsB are necessary for cellulose synthesis. (FIG. 1A) Inverted membrane vesicles containing either BcsA, BcsB, or both subunits were incubated for 60 min at 37° C. in the presence and absence of c-di-GMP and 0.25 μCi UDP-[^3H]-Glc. The synthesized polymer was purified by descending paper chromatography and quantified by scintillation counting. The amount of product obtained is shown relative to the product formed from IMVs containing BcsA and BcsB. Control reactions were performed with IMVs derived from cells containing an empty pET28a vector or in the absence of c-di-GMP or the presence of 20 mM EDTA. Results are shown in light and dark gray for components from Ec and Rs, respectively. (FIG. 1B) immuno-blotting of IMVs containing BcsA and BcsB. BcsA and BcsB were expressed with C-terminal poly-histidine- and FLAG-tags, respectively, and the equivalent amounts of IMVs used for activity assays were analyzed under non-reducing conditions by western blotting. […]
# FIG. 6A-6C (also referred to as Example 1, FIG. 6): The membrane-associated domain of BesB is required for cellulose synthesis. […] IMVs containing wild-type BesA and the indicated BesB constructs were tested for cellulose synthase activity by quantifying the accumulation of radioactively labeled cellulose. […] (FIG. 6C) Western analysis of the analyzed IMVs and PLs. […] The equivalent amounts of IMVs used for activity assays were used to quantify the BcsA and BcsB expression levels. Vesicles containing WT and the BcsA-B-S684-r complex were analyzed on separate gels. […]
# Gram-negative bacteria transport cellulose across the inner and outer bacterial membranes. […] To identify the complex components required for cellulose synthesis and translocation across the inner bacterial membrane, we expressed BcsA and BcsB from Escherichia coli (Ec) K12 and Rhodobacter sphaeroides (Rs) in E. coli C43 (28), prepared inverted membrane vesicles (IMVs), and analyzed them for cellulose synthesis activity. […]
# [2] = system: cellulose synthesis; assay type: biochemical, Rhodobacter sphaeroides
molecule,measurement,setting,value
BcsA-B-S684: BcsA complexed with BcsB fragment N-terminally truncated to start at Ser684,catalytic activity after reconstitution into PLs,[1]; purified truncated complex in PLs,catalytically active
B1,increase of catalytic activity in the absence of c-di-GMP compared to wild type enzyme,"[2]; no c-di-GMP, IMVs and PLs",approximately 6 fold
B2,dependence of catalytic activity on c-di-GMP,"[2]; formation of cellulose or UDP, with and without 30 μM c-di-GMP",constitutively active
B3,catalytic activity (HMW polymer formation),[1],catalytically inactive
B4,catalytic activity (HMW polymer formation),[1],catalytically inactive

# Reference: US9890407B2, “Method for synthesizing cellulose in vitro” (University of Virginia Patent Foundation, priority 2013, dated 2018)
